We go through 20 sequences from the DeepSol protein solubility set.

This data set is described as follows: soluble on expression in E. coli; label from the status in PepcDB or PDB records.
Take “MSLRGESSGLMAYKAEDIYFTLFNGLHGSAHGHASTGGFTLQLQGDDLFSDSGRYSYVNKSERLQLKECASHNTMFIAENPHTLVSDTWGYDKLPTPLFQQIKELSVGFFAECGWLDKADQNPMIFERSFIYLKSINSVVIIDSFAGQKETEITSTYNLAPSINCQKEAHRFALTTNKHKYTLLFAGGQTQQSVAKGSEIYNQLNEHPRLSNKFCYKTGKEIQATVISPLEDIQITPIKVSQTGENEQFCQAKGFRIIAGSEKFDLFVMREDIVKGNKLLVSEYGQFFYGRLVLIDQKEAKIRIKEGHHHHHH”: the “soluble on expression in E. coli” value is “soluble”.

Take “MSLKRVIGYIRVSTDNQDLERQRVLIRKYCENKGYSLLRIEEDYAISGTVSNRNGLNSILNITNSVADMVVVSELSRLSRQDDIFETLTQIHTIIRNVDLVILDEPDKVYEAGKTIILSDFLMLAIKAYGAADERKKIVSRMTTGKDSKVQAFPLMLTDSNIPTGFKAVPNPNYIKGATPKMLLVEDEERMQLVRDIFNYVANGLSLGKTAEKLNMLGYRTARNKPFYEQSIRTIINDSIYNGVRYWKGMKLELPVKFISDEIWNLAHKKVQENKNYSGEGHHHHHH”: the “soluble on expression in E. coli” value is on record as “soluble”.

Regarding “MLEQIRNTHPLVYQNFSALPDGEKHLRSILAIDRYWEKLDLPVPDVILAGSRLPVDACVEEACDILYAGGTLGLLHAAVMSKKYGRKVLVIDRAEPGRTTRDWNISRGELLRLADTGVFTSEELDSTIVRMYKTGWVEFHAPAERRKRLYMDEVLDCAVDADRLLGMACKKVLAGGGSKVLGHTSFVCCYQFPDHLVVQVEELSGKPRYFRTQVLVDAMGIVSPVAMQLNRGRPQTHVCPTVGTIASGFENADFEVGEILASTEDAEVSGKRGRQLIWEGFPAKGDEYITYLFFYDKVDSPNDKSLLGLFEAYFRKLPEYKKPGPNFTIHRPVFGIIPAYFHDGAGCTRVVSGERIALLGDAASLASPLTFCGFGSVVRNLDRMTSGLDRAMREGRLGAAELANISAYEPNVASMATLMKYMCYDPETDEPGFVNEMMNEVMIVLDELPQRYRQAMFRDEMKVEELVTVMLKVAWRYPKILKATWNKLGVGGSVGFVKNLAGWAISQNEKRGLEHHHHHH”, the “soluble on expression in E. coli” value is listed as “not soluble”.

As for “TSPLYTGAVPRANRIVQQLVEAGADLANIRTMFRNMLRGEEMILSRAEQNVFLQHFPDMLPCGIDRNSELAIALREALRRADSQQAARAPARTPPRSSVRTPERSPAPRTATESSSGSNQRSLLGRFAGLMTSNQRRPSSASNASTSQRPVDRNPPRINLMPTGANRVAMRNRGNNEADAALQALAQNGINMEDLRAALEAYIVWLRPIPLDIANALEGVGITPRFDNPEEAKVDNPLMNLSSALKRRLDA”, the “soluble on expression in E. coli” value is “not soluble”.

Regarding “LTGPLMLDTAPNAFDDQYEGCVNKMEEKAPLLLQEDFNMNAKLKVAWEEAKKRWNNIKPSRSYPKGFNDFHGTALVAYTGSIAVDFNRAVREFKENPGQFHYKAFHYYLTRALQLLSNGDCHSVYRGTKTRFHYTGAGSVRFGQFTSSSLSKKVAQSQEFFSDHGTLFIIKTCLGVYIKEFSFRPDQEAVLIPGYEVYQKVRTQGYNEIFLDSPKRKKSNYNCLYS”, the “soluble on expression in E. coli” value was “soluble”.

Consider “MAQVAIITASDSGIGKECALLLAQQGFDIGITWHSDEEGAKDTAREVVSHGVRAEIVQLDLGNLPEGALALEKLIQRLGRIDVLVNNAGAMTKAPFLDMAFDEWRKIFTVDVDGAFLCSQIAARQMVKQGQGGRIINITSVHEHTPLPDASAYTAAKHALGGLTKAMALELVRHKILVNAVAPGAIATPMNGMDDSDVKPDAEPSIPLRRFGATHEIASLVVWLCSEGANYTTGQSLIVDGGFMLANPQFNPE”, for which the “soluble on expression in E. coli” value was “soluble”.

On to “MGSDKIHHHHHHMPSTNPFLTLPYEPAFASLGSEFSDPVEAATFPAHQLRFRNDRLLPILGLDPATVTDEHFIEAFGRFQGRSPLLAMRYHGYQFGIYNPDLGDGRGFLYGQVRGRNGWLYDFGTKGSGRTPYSRGGDGKLTLKGGVREVLASEFLQRLGVRTGRCLSLIETGEELWRGDEPSPTRSSVMVRFNRTHIRFGTFERLHYFKRADLVRQLLDHVIATYYSHLLGDPEADAKFYAELTERTADLAAQWMAAGFCHAVLNTDNLSIVGESFDYGPWAFLDRFDPKFTAAYFDHSGRYRYENQPGICQLNLELLQVPLGMVMSAADLEAGIAGFGDRYQATYSRLMLRRLGFEADQLHSAIADDLIITTLQLLLRAPIGYNEFFARLRAQFQPSWRSDLSAILPDWITTDLEALPEAQWQGWRDRYHQLLTHLPESQLPLIQQQLAQANPEIAPIRPVVESVWDPIAIDDNWEPLEALLNRWRHDGDGAADGVVVPNAN”, for which the “soluble on expression in E. coli” value was “not soluble”.

As for “MKKIIGLVGTNSEQSTNRQLLQFMQHYFAQEADIELVEIVDFPMFNKPEDKVLPEIVKTVAEKIEAADGVIISTPEYDHAVPASLMNALSWLSYGIFPFVDKPVMITGASYGTLGSSRAQAHLRQILDAPELKARIMPSSEFLLAHSLQAFDENNALKDSEQIDKLAGLFADFCVFIEITEQLKHAHAQNKKEAENFSWETI”, the “soluble on expression in E. coli” value is reported as “not soluble”.

On to “MTSSFLYVLFTVSCLAALVSISEACFASGICGGGCPPPPPPMCSGGCGGGYSCGSYGCYRARARGSKTLSFKKPSEMNPDERFMKCCEDRNLPDSCLSKCSYRSYTKSALQSMYFKQDSCPMQAAADIQFCAAQGKDHTACCARNAVGTTLAGNKCFTFCDQRPGNVTQLDMSYLACYDRFENMKACFYQKASEASDPIVSFSNDRDNNREFAVDTETAEFRRPSQEHFRAPTSPQLPQNPLFAVQNLLARTFGQ”, for which the “soluble on expression in E. coli” value is recorded as “not soluble”.

As to “METVQDCENKLPPSLKSRLCEIRRYEIIEGPEMDKHIHCVMRALDFVYEDGRGDYHKLYDPLNIIELDKRHDVNLEKCIGECVQVPTSERAHVFYKCLLKSTTGRTFKKVFDLMELKKAGKVPQHQRYTAEFVQIMKDYDKALNC”, the “soluble on expression in E. coli” value is “soluble”.

In the case of “MESELIFHEGGCHCGKIKWRVKAARSVIAWSCNCSDCSMRGNVHFIVPSSNFELLDDSKDFITTYTFGTHTAKHTFCKVCGITSFYIPRSNPDGVAVTVKCVKSGTLAHIEVKSYDGQNWEMSHKKTGIASFSKE”, the “soluble on expression in E. coli” value was “soluble”.

With “MGSDKIHHHHHHMYKHSIIPKPVSEYDLRLLRIFISVVEHGGFSSAANALGITRSTISVHMSNLETRMKLKLCLRGRGGFSLTEDGQAVYQAVLDLFATMDDFSLLIDSLGSELSGELIILCADQLDESKQHKMAQVIKKINDASPNLHLVLDGDSISNIEKALLKDKAHIALFPSYQQIEGLQYQPLFSESIYLCCGKQHPFFNQVDTAISEEILGQAAAIHPGINIDLAGKQQLEKLNLSAKSYQFDTRKAMILSGCYIGFMQQSFIQAELNRGEIRIIKPNSHHYQFRLSLVSKKTPREVKKVELLTNVFSQVFEL”, the “soluble on expression in E. coli” value is recorded as “not soluble”.

For the sequence “MNVRITKKMVRELLEVLDEIVEEIRQEEKEKYPYAEWERKREIVKERLRKLPKYVREAVSAIRIEKRVGRPKKVDLEKRVMLFLFARLINKSNRDVEELLELFEPLFGIRVSYKTIERLYSDEEVRMALHNLFILLLKDEGVSGEFSGDGTGYSLAITKHYRSNPKKKGKDFRYVFRIIDLETGMYVGFGYSAKSEKDAFEKAMKMLKSMGVKVNSISLDKYYSTRKTLRMFDAETSVYVIPKRNLSRIGFDWLRVIERIVEMPYRFLKRYFKRNLSEAGFSADKRRFGWLIRQRREDRREMALFAVGLWHNIFAVRVMR”, the “soluble on expression in E. coli” value is “not soluble”.

Consider “MQSIPIKNVGESRLVDPFQRQYYYLRLSITDQCNFRCTYCLPDGYQPEANKPSFLTLKEITHLAQAFAEMGTEKIRLTGGEPTLRKDFISIAESITNIDGIRQLAVTTNGYRMAKDVADWKKAGITSINVSVDSLDPKMFHQITGINKFDDVMRGIDRAFEVGYNKVKVNSVLMKNLNDKEFEQFLAWVKDRPIQMRFIELMQTGEMDSFFDKFHLSGQVLADKLLKNGWTLQHKSHTDGPAKVFTHPDYAGEIGLIMPYEKNFCASCNRLRVSAKGKLHLCLFGEEGIELRDLLQSHEQQGILQARIFAALQGKREHHYLHIGDTGVRNHLASIGGMGHHHHHHSH”, for which the “soluble on expression in E. coli” value was “not soluble”.

On to “MAHHHHHHMGTLEAQTQGPGSMTPAAHPPRAAIADIAGHLPEQVLTNDVLAQLYPDWPAEKILAKTGIRERRIAAPRETAADLAYEAARKLFAQGAVGADQVDFVILCTQAPDYVLPTSACMLQHRLGIPTHAGALDVNLGCSGYVYGLSLAKGLVETGAARCVLLLTADTYSKYLHPLDKSVRTLFGDGASATAVIAEHGELERIGPFVFGTDGRGAPNLIVKAGLFREPKSADSAREHEDASGNVRTDEHLYMNGAEVMAFSLAEVPRAADRLLALAGEPRENIDCFVLHQANRFMLDALRKKMKIPEHKFPVLMEHCGNTVSSTLPLALETMRANGTLARGMRLMLLGFGVGYSWAGCLVNF”, for which the “soluble on expression in E. coli” value is reported as “soluble”.

As to “MVSTDWKSDLRQRGYRLTPQRQLVLEAVDTLEHATPDDILGEVRKTASGINISTVYRTLELLEELGLVSHAHLGHGAPTYHLADRHHHIHLVCRDCTNVIEADLSVAADFTAKLREQFGFDTDMKHFAIFGRCESCSLKGSTTDS”, the “soluble on expression in E. coli” value is reported as “soluble”.

Turning to “MGSDKIHHHHHHMRKMAVQKLPEKDFFAPLKAWKFLVRKPVTIEVPNKIRREASERYRGFHVNDWGKCIGCGTCAKICPTDAITMVEVPDLTQEDGKLPQRPVIDYGRCSFCALCVDICTTGSLKMTREYIHISEDPEDFIFMPTDKGLNAKKGLYEFGKAPLGWVRDENSELLDLERIEMPVEPPEVRIKSFIEIVKGYSREQAMQEAARCVECGVCTYTCPEHMDIPQYIKSVYEDNLEEGLRWLYRTNPLSMVCGRVCTHRCETACSVGVRGEPVAIQWLKRYIVDSIPLERYGEILDIKPERKGKSVGIIGSGPAGLAAAYFLATMGYDVTIYESESKPGGVMRYGIPKYRLPDEALDKDIAFIEALGVKILLNTRVVQDVSFEDVRKRHDVVFLATGFGLGRSTGVPGTDHPDVKQALPLLKMIRDYLRGDGPKPPVPERLVVIGGGNVAMDISRSMARLQFMEYGRVNVQVLSLEGCFEDMPADMEEIEEALEEGIVINPGWGPMEVVIENDRIKGVKFKKCVSVFDGEGRFNPQFDEKEQIFVEADMVVEAIGQAPDYSYLPEEIRSKLEFFRGRIKTNEYNQTSVEWLFAGGDIVHGPDIIHGIADGYAAAKGIDMYLRKEK”, the “soluble on expression in E. coli” value was “not soluble”.

“SAVAIPQATSLTNLVFLTKLIPRGSFTTILPKHHRKPIFVFSLQTQFSSPVTTLTSKNPKDDEQQQKLSFTLNYLIDSCGLSPDSATVASRKLLLDSPERPNTVLNLLRDHGFTTAQISSLVKKRPVLLLANAESVLLPKLSFFLSIGVSKSLLARTLASDPTILTRSLVNQLIPSYNFLKSVLDSDEKIVAALRRTTWVFLEDHTKNLVPNINYMAETGVPEKCIKLLLTHFPEAVMQKNHEFQAIAKQAQEMGFNPQKSTFVLAIHALSGKGNKSIWDKCFEVYQRWGWSEDDIMCAFKKHPHCMMLSERKINRTMEYFVNEMNMAPRSIAQCPVVLFFSLEKRIIPRCSVTKVLVSNGLVKEDWSLTSLLVPVEKVFLEKLVIKYEEELPELMNLYLGCTKL”: the “soluble on expression in E. coli” value is reported as “soluble”.

On to “MAKDDVIEVEGTVLETLPNAMFKVELENGHVVLAHVSGKIRMNFIRILPGDKVTVELSPYDLNRGRITYRFK”, for which the “soluble on expression in E. coli” value is recorded as “not soluble”.

Regarding “MSSGDQKVKEMFIEQGLHVDWLVRAHTVNSIEGLVYLSEQRHKWAEADQKVIFRILQDYKNSDGELLPEHNPAAPINRKRGTLKTELETFYDVPQVRTLTCELLDMVKEEPSIWDKIRCVDFGCHQRMRQAWCSISLKLGGWGAIQHVHMLKQLYRKKRDLYNVQYLRSGREFEYCEKLSFLKDVLEMAKNDPLDKNIQLDEHLKTATPIIDFDAELLAAPAEIQQILREISEKIDKVTTSQSPGFLAEYLATCCNEVVKHRETLATAGLGDDFN”, the “soluble on expression in E. coli” value was “not soluble”.
